Target: human serum albumin (human) (UniProt P02768)
Experiment: ITC

dH: -8.9 kcal/mol
stoichiometry N: 0.84
Substance: dalbavancin (peptide)

— paper doi:10.1101/2020.09.09.287375
